Assay: Solubility versus pH curves (centrifugation, reverse HPLC)
Type: physicochemical
Method: Solubility versus pH curves were measured in the following way. A formulation was prepared and aliquotes were adjusted to pH values in the desired range by adding HClO4 or HCl and NaOH. These samples were left equilibrating at room temperature for 2-3 days. Then the samples were centrifuged. A small aliquot of each sample was withdrawn for reverse HPLC analysis for determination of the concentration of the proteins in solution. The pH of each sample was measured after the centrifugation, and the concentration of each protein was depicted versus the measured pH.

Compound	pH of full precipitation (below physiological pH) (Example 2 mix, 0.6 mM GlyA21 ArgB31 ArgB32 human insulin, 0.46 mM Zn(Ac)2, 30 mM phenol, 50 μM pramlintide) [pH]	pH of complete precipitation (below physiological pH) (Example 1, 0.6 mM GlyA21 ArgB31 ArgB32 human insulin, 0.46 mM Zn(Ac)2, 30 mM phenol) [pH]	precipitation versus pH compared to formulation of the insulin analogue alone (Example 2 mix, 0.6 mM insulin analogue, 0.46 mM Zn(Ac)2, 30 mM phenol, 50 μM pramlintide)	solubility state at pH 7 (Example 3 mix, pH 7, 0.6 mM GlyA21 ArgB31 ArgB32 human insulin, 0.3 mM Zn(Ac)2, 30 mM phenol, 100 μM pramlintide)	pH above which completely precipitated (FIG. 1, 0.6 mM GlyA21 ArgB31 ArgB32 human insulin, 0.46 mM Zn(Ac)2, 30 mM phenol) [pH]
CC[C@H](C)[C@H](NC(=O)[C@@H]1CCCN1C(=O)CNC(=O)[C@H](Cc1ccccc1)NC(=O)[C@H](CC(N)=O)NC(=O)[C@H](CC(N)=O)NC(=O)[C@H](CO)NC(=O)[C@H](CO)NC(=O)[C@H](Cc1c[nH]cn1)NC(=O)[C@@H](NC(=O)[C@H](CC(C)C)NC(=O)[C@H](Cc1ccccc1)NC(=O)[C@H](CC(N)=O)NC(=O)[C@H](C)NC(=O)[C@H](CC(C)C)NC(=O)[C@H](CCCNC(=N)N)NC(=O)[C@H](CCC(N)=O)NC(=O)[C@@H](NC(=O)[C@H](C)NC(=O)[C@@H]1CSSC[C@H](NC(=O)[C@@H](N)CCCCN)C(=O)N[C@@H](CC(N)=O)C(=O)N[C@@H]([C@@H](C)O)C(=O)N[C@@H](C)C(=O)N[C@@H]([C@@H](C)O)C(=O)N1)[C@@H](C)O)C(C)C)C(=O)N[C@@H](CC(C)C)C(=O)N1CCC[C@H]1C(=O)N1CCC[C@H]1C(=O)N[C@H](C(=O)N[C@@H](CC(N)=O)C(=O)N[C@H](C(=O)NCC(=O)N[C@@H](CO)C(=O)N[C@@H](CC(N)=O)C(=O)N[C@H](C(=O)N[C@@H](Cc1ccc(O)cc1)C(N)=O)[C@@H](C)O)C(C)C)[C@@H](C)O [pramlintide, Pro25 Pro28 Pro29-h-amylin]	< 7.4				
GlyA21 ArgB31 ArgB32 human insulin		< 7.4	not changed	completely precipitated	> 6.5
